Results from the DeepSol protein solubility set.

Assay: soluble on expression in E. coli; label from the status in PepcDB or PDB records
With “MAHHHHHHMLHEPVSTANGHMPRRSSLGCRLRSSPFLSCVAYVNTLTCDSLMHALRATVSQRIATGVDVECHRLTSGAAVVSTPTQVHISITSANFVRQRSSRPALLPLLTHPPPPSPSLHPVMSRSRQQQAAEVTLHHFFKTERVIRLECERREAKARLKLIDIMSGDLDDQLLCVAQFKKEWLQSRRVLEEARQAVVQEEGSKRAYVEEEYVRTINTMSRHYHPLSSRVV” the “soluble on expression in E. coli” value was “not soluble”. For “MAHHHHHHMLHNGKKNPTQAVDDGNPRKSKHREVGSHCKGLDKKENINKSGEEHIKKVEGRENCEPHDIKRRGEIDKVLIQCEELQRKELEALKLIYVRDRELVIQNENDEKRDTIIHMQLNDENISDNVINLTFELPKDYPLKSFLLIDINVKNFTPDMNNYLNQEVYKDMPNYIAHENSILSIIYRINELVENIQNSKKTSVDHSYLSSEEREEYVEEGAFDPSEDQLIKDHVPFLYCSGMTYSHHRRVLARRLCYSHHILSLVKRTYIIKWAKDLKIGGYSKIGYPGIIICEGPKEEVDFYINSLNKLRWKHFDCRGMEDIILKEYEDLDDARVLPRTMYELDPKGMSTLSNICTECGLRDLFLTSMKIYHT”, the “soluble on expression in E. coli” value was “not soluble”. With “MAHHHHHHMLQNMSNILDRTCWSCFFFFLKRKYSYMRRGTSTYPTTGCPLKKHEGGSHCPRARNWTASAGDIVGNGRRAEVGLARLKS” the “soluble on expression in E. coli” value was “not soluble”. For “MAHHHHHHMLQRVLARLPGAPACISDPLHMRALLELIGYVEPGDNLNRVAYAGELHYPPQAHAFMAELLAEGRQRDGGDAFDAIRERRAGPGYAIDSATTSEVDDAIGVCVDGATGAKYFVVYVSDATVYCPFDSTLEQLTARRLTTTTYLPEGVFFMLPKPIVEAATLREDRPCRTFNVIFQIDESTGEVKNYSVAVGWLDQLRRITYDQVQEIVNKEEGKEEGDEHDSAAVVAAAHDTDASSSPPLLAGCADSAHPPPAWMTREDKDNLFYILRCARLRLRARLERQQRQQQQHHHGAGGKDCGDEGVPATPPVDFSLPDPLIEVKGTKVLSVTDQVISTQDARLAVAELMIAANEVCSRVAQANHIAMPFRGTRTLSSDHLVAHYYTEPEGVRTLMSLDASHIFLAEAMQSSVRRLSTVTRAIYHHVPLHHAGLDTTFYTHSTSPLRRYADMLVHHQLKTWLWQQRRGGGSSDHTSATSTSAARAAMVAAPQQLIPEHAMASLCTMISAKQERASLLQDNSTRFWILRYLEDLERASANAAAAARGDGDGDTHRKKTYLCLVGETRRVVAAPAYSRFACSSAEMSQLLSLPLTAPSTTSSTVRRPASLQMDAVARWRQETPEFTYVSDVYIPEVQLAHTITHHRDDVLVGAVLECHITRVQPTQGVLELAIERVLPGGDERHYERLWMGGFVSQLDA”, the “soluble on expression in E. coli” value was “not soluble”. With “MAHHHHHHMLRLTQAVLRVQSHQKKRAQHPNAGTRFGRVYNRGFVRYGFGGFGMSVYSSKKDRTFKVMPVPPPPPATTAVEQRDDFADNRGLSATTRTLSPTFRMFALEDGGVLVSHPSHAQIMRWNQRVHTEEGKAANSTVMDEYVNSRIQAIIADNTIENTSLSQWRKAHMWNVIKSHGKLQRRWGTPDFVMGARSTLYNN” the “soluble on expression in E. coli” value was “not soluble”. For “MAHHHHHHMLTDNQNCLEMERSDKRVTVALINTRSGERTAAEFVRKQMETHLGEENVFYLFPSGKPAIAEAKKFLERHNPAVVIVAGGDGTVSLALDITDGLRRTNMLSATSAYVAVLPMGTGNDLSRTLGFGGGYVKPLLNPEKKFKRLLDRLAHAKGIKMDRWSVQIQKKSTLTVASTGEDAHAGDSSRTYGVDDVHVVEKTMMNYFSIGFDATIVRQFNDFRNDHPTMCSQRSLNKLWYGCFGCGSMCNSVALPRKQMKLTVDDKCVAIPPGTKALLVTNVKTYAGGAVLWKDNRCRFAKPDVGDGLLEVTALYGVWHFAGVRMGIRKAMKVAQGNCIRIETPAYFAMQLDGEPVDELACGEEMIDVSITFFSRTLVMTCEGS”, the “soluble on expression in E. coli” value was “not soluble”. For “MAHHHHHHMLVFRRNFSRFINNNTPKRGVRKVLHKNVTQYGKYTPNSNIVNQQNDNNKLVRGGGGLLSTFYESFIYGCGFFLSNRLLDQIFGPRTYDSFSNNMDYSNENSGGQAPDNYNSYPSENLNNNDPTINDNDFQQDIGLDDDTFDF”, the “soluble on expression in E. coli” value was “not soluble”. With “MAHHHHHHMLWAIKHTDYPTMSTGLETLDLFLENVSKSEYAEVFFKAYMQRILVDVMVASMDSLHASGFQHHVRILQKLFNVSSMVPPDTPTIGKDVIRAYLLDSLTVIPTLTTTSILSFVDTCYESFTDDERFRTQFADFLIEVKVWGAEQENKMQEEDERRLREETIPGFSNLSMEIRRQTCSPPSDPGRCADGQGRGPASVRRFHCRRHRHPSKYTCTPLSLFPLKNPSADPAVRDVRPSYFVDCVGG” the “soluble on expression in E. coli” value was “not soluble”. For “MAHHHHHHMLWVDKYRPKSLVEVELYPELTEVLKRLAESQDLPHLLLYGPSGTGKKTRAMAVLHHVYGPSVYSLRLEHRSVQVTDSKVVDIATLSSPHHIDINPSDAGNYDRVIVMQMIREIAQTVSLQSSTSNGVKYKVVLLNEVDKMGRAAQHALRRTMEKYMSTCRLVLICNSTSRLIAPLRSRCLAVRVPSHSKENLTKVIRGVCERENRPLPSPEFMATVTQRSEGNLRRALLMVEAAAMTKVDFSGNGADIPQPDWRVFLDEIANDILSEQTPKKLHEIRGKFYNLLGQCVSGELILRLVLEKLMSAVDPALRRPLVALAAQYDHNMKLGTKTIVHLEAFAAGVMQLLKQK”, the “soluble on expression in E. coli” value was “not soluble”. In the case of “MAHHHHHHMMKLNRNVLFKKGEKITYSVKSVIFIINVIRTRGEEDDDNNNISGKSILGTSHNNISNIDLSSIPNLDSNIHASFSSDTKEWSPNNLTSKKKKKKKEIRPKDIMSNSDSSNTSSINKQNNNQIKSVLLKENKGVKITGPCNVNLSIFLVPHIYIDVETKYNNIELKYELDEFSDSIKFKDTTTELRTSDDTLMNTNFNVGVSRDTLDKDRLYNICAENKTFKFVVYIKDNILTLKWKVYETGVTNNKVDIRQYKMKELTRPITTIQIHSVSENKDTHLLESKNYVIKTDIPETCDVMATNCFLSGNINIEKCLECTLLVQNNDTSSECFTYVSNDVRENFNQIKAEAEDDENFRNYHLTDTINNILKRIYKINKNEGKKELITLEELDNFLKESITDYCKILREIDTNGTLVNHELGNNVDVFNNLIRLLKLHKNESISTLHNKLRNSAICMKYPDKWIEKKTGLILPNVVNNNIIYNNKYEKLNEEKKRKIYDNKDDSKISDIINIKKYIFTNNTLKYFNNDKQFCNSSFCNRLKDENNCISKIQIEDQGNCAISWIFASKYYLETLKCMKGYEPHAISALYIANCSKRKHKNRCNVGSNPLEFLQIIEENQFLPMDTNYLYSYTKVGNDCPDEEKNWVNLLKHTRMLNYNNKHRSTLSTKAYRAYESEHFKDKMDTFIKLIKDEIMNNGSVIAYVKAENVLGYELNGKNVQNLCGDKTPDHAVNIVGYGNYINDEDEKKSYWIVRNSWGKYWGDEGYFKVDMYGPSTCEDNFIHTVVVFNINMPKSKKSPVKITFPLYNYYLKYSPDFYHNLYYKNFNSKKSMKLVNASDEHKNIYSQEDKVNHKKGSKILNSEVTTSLLSQEISQRRGEDDDIDTLIGDSPDINEQEKNIKDEFNKSSITHNSVSSSNITKSNKNTNKVKIYHIIKHVKNTKIKIGFVKYDNYNTIGTNHTCSRSYSEDQEKHEGCIKFCELHWNECKDKTSPGYCLTKLKGSNECFFCYV”, the “soluble on expression in E. coli” value is reported as “not soluble”. With “MAHHHHHHMNFPDSRVLSDEFPRRKYKPSSATRLEDIVLKGLHYGQRKLLLSEIEFLSAYLEGRQAGAKPTLVVYAGAANGSHLPFLFQLFEAVKFVLIDPAPFCDAVREISLNKQGPILDLVQGFCTDELCKQLSSSYGSTYDILLVSDIRSGVPEKQSNRENTLMIMRDNDMQRSWCWTLKAEAALLKFHPPYPPCRDRNSRHYDEADDTPESIEYLDGVRLFGVWAPKSSSELRLCVQGPFLQGTSFPMRRYDCTTHEEQCYFYNTDNRYTRDCAAESGILERYLQLFPSAPYSDPTALSMTISNFLGFPLFLPLDSSFSESDARWVTLLYSTRIPTCLELFTTLRGRVTHTVMKQLAEEWQSATTVPKGVSIDSVELTSEFWKAVCAGDLTEAYSFPNIRWRFANLLISRRRKRSASDRAP” the “soluble on expression in E. coli” value was “not soluble”. In the case of “MAHHHHHHMNILHKIFTPGSKSKKTLLHCDAELGDRQSHSSSKVSTAVQVKSKLTAASSDDDDCGPLMRSVSMTVVSDPVPSSFKTNSSFANQSRPTQGPASFKSARLANSFSNASCHLERHHQHTAALASSVSRHNQRSLFDKIHSSGSFAVGETTVSGGSFTANGGTVNLWRLPWTQQKVTMCPNCHRPRQRDRTMQVSRASYTLQETTIENGMGDDMSEANEDMSYSDSEGMGGPMSDSVTCRCGVVSEGDAPLDYDDSAEATEEHPKLFVVETQNPSAVQLPGTIAEASDSEGEGREDVRRSYKLSLVSSPTPTSLRRRAPRVQPLLSGASPQTNTASVPKRVTHWLHEQQTSEARVVLKPKAAR”, the “soluble on expression in E. coli” value is reported as “not soluble”. With “MAHHHHHHMNKDTICAWCFDVLKYELKNEKFDKVPPLIQSLHNDGFKIPFFVKWMKLNDVKDMGSYNYDAYELNGCIGCLGETDIMELRYYALESSLNDTRFYPITLKDFPFLIVTITYLFNFEKCAHVYDWVIGKHGIKISFVANKRRYSSTFLPEVASQHNFDHQTTVKKLIRKANYRGEINDELLENIEVERYEGVSCSLTHVDYERV” the “soluble on expression in E. coli” value was “not soluble”. In the case of “MAHHHHHHMNVINRMLSRGHVAASASLPIKERPFPVNYGLSTFKWHLDSRKPSKAILLHDLFGSSAYWQMLLHESLGRLPCSGLTPLVPLELFAVDFRGHNHSKSLPCPEEGRAFTMACAADIMLLQQQVLRADAKLVGIGFGALVACQAALHSPESGIDSLVLIVNGPSDLLACEPARYSLPSFISDIPKEISSVADLEHHLHKRVPNEAERALILSTVEQREGTVGFKFNETLFQFRGPLCGFSDVGPENIFTKPVTVIQCGSEEFSGEAKSDFMKHFPKAKFVLFEGDRSGGISGLSAQGPAVTRTLLEAMELLGETTGGEE”, the “soluble on expression in E. coli” value is reported as “not soluble”. For “MAHHHHHHMPLTCRSFCEWALAYMGTQEYTPSIIQQRNSMAAAERDPDDRNVLDFSTYEDYLDQQVTGEDLFYLEDQDAARKIVELGYKGKDVLSREEFEAAQYLARTGPLKRRESAEVITSAGKDVSDSPLLTALAKREELVRTGKLATVLFLRDYVSGQEVSAYIDYGYRLRSENFEAYFKKDKKLLPKRSDLSYYNWKTHTLFYNNSPTFQVLADSTLGLVMKHKRDRKAIHVDPNSPSPGENCSRTVVPCKDYLQAVIYDHVTRRKN”, the “soluble on expression in E. coli” value was “soluble”. With “MAHHHHHHMPNDTLQVKLSQDSLFFPLPFTNATIDNVVQVKNMLPVVQGDPKANVISFKILSRVQNRYSVHPPVGFIGAGEHATIIFSFNPEHVKMAKNPEERELPTEATKDAIHVDFAVVDAPSVQTALAHWVPGSKETKASWEVVADASRFWKQRGQVKENSPITMRYKLRCVFATRNNVPDSLVMCMKEEGGCCKLITDGAAPLPRTRPPMTSSTQPQNTAPPEAPPHRYSESQRTTPTTRSPRSDACCTPCAIGPPGIFTMGPGAAAAASAPSASPPSSAPTQKSKTSAGITCGDITLKSIAEEVLNYKLSYRAVGVLLFLTLLCGLLDQSNLLTWLIAKQ” the “soluble on expression in E. coli” value was “not soluble”. In the case of “MAHHHHHHMPSWCLIESDPAVFTELIQRFGAQGVAVEEIVQLEQEYLRVHTNVYGLILLFKWKARKEGAATDGVVVPDAPVFFVQQTVNNACATLSIVNILLNHKESIELGEVLGNFLSFTQDMNPYLRGTQVGECDALREAHNSFAPVELFSLDHSVPDAGDAYHFVSFVYKNSAIWELDGLQEGPILASDASDENYRDKLMEVVRKRIRDHSAEDTTGAGQGISFSLMAVVDDPLVLLERRIYEATLQEAPTHYLEEQLNQLTKQRAREKLENQRRRHNYVPMIVELLKALAEKGQLKGILDDALAKKSGQGAKQ”, the “soluble on expression in E. coli” value is reported as “soluble”.
